Laboratory results published in patent US20080292620A1.
Blank lines part the entries; values can stand above or below the binder they belong to.

Legend:
[1] = target: T1, human prolactin receptor (PRLR), full length on cells (human) (UniProt P16471); experiment: cell-based or functional assay
T1 sequence: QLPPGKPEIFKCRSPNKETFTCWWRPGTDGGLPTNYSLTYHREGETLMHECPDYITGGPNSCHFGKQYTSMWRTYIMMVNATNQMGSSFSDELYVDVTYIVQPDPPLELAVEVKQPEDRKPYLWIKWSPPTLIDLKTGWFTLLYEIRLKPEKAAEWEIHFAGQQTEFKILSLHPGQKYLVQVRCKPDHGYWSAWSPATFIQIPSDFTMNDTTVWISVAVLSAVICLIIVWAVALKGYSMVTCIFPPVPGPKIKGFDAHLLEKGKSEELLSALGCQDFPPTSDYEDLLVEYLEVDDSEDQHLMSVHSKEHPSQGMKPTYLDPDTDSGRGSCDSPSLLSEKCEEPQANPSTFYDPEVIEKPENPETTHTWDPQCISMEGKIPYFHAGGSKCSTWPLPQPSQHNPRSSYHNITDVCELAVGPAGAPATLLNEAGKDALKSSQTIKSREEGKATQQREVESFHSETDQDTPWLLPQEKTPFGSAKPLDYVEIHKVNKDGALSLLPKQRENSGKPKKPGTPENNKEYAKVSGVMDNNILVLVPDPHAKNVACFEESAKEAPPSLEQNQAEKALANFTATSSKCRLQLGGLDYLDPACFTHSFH

[2] = target: recombinant extracellular domain (ECD) of the human prolactin receptor (PRLR) (human) (UniProt P16471); experiment: Biacore SPR, procedures similar to Table 6, PRLR ECD
[3] = target: recombinant extracellular domain (ECD) of the human prolactin receptor (PRLR) (human) (UniProt P16471); experiment: Biacore 2000 SPR, antibody captured, PRLR ECD injected

- Proliferation inhibition IC50 for BaF3/PRLR [1]: 0.1
- pERK1/2 inhibition IC50 (prolactin-stimulated T47D cells) [1]: 0.11
- Kd [2]: 0.043 nM
- Kd [3]: 0.1 nM
B1: XHA.06.983 (antibody, from another filing, V domains shown)
VH: DVQLVESGGGLVQPGGSRKLSCAASGFAFSSFGMQWVRQAPEKGLEWVAYISSGSSTIYYADTVKGRFTISRDNPKNTLFLQMTSLRSEDTAMYYCVRSGRDYWGQGTSVTVSS
VL: SIVMTQTPKFLLVSAGDRVTITCKASQGVSNDVAWFQQKPGQSPKLLIYSASTRYTGVPDRLTGSGYGTDFTFTINTVQAEDLAVYFCQQDYTSPTFGGGTKLEIKR

- Kd [2]: 0.934 nM
B2: XHA.06.642 (antibody, from another filing, V domains shown)
VH: EVQLVESGGDLVKPGGSLKLSCAVSGFTFSSYGMSWVRQTPDKRLEWVATVSSGGTYTYYPDSVKGRFTISRDNAKNTLYLQMSSLKSEDSAMYYCARHRGNYYATYYYAMDYWGQGTSVTVSS
VL: DIVLTQSPASLAVSLGQGATISCRASKSVSTSGYTYMHWYQQKPGQPPKLLIYLASNLESGVPARFSGSGSGTDFTLNIHPVEEEDAATYYCQHSGELPPSFGGGTKLEIKR
